From PMC3064727

Substrate: CC(C)C[C@H](N)C(=O)O
Assay: pyrophosphate release assay of A-domain adenylation
Format: biochemical, Aspergillus terreus
Conditions: holo C-A-T-R module

B1: NRPS325 (Aspergillus terreus NIH2624) (protein)
chain: PTVERHVESQEPVVEAAVVASSSDSSSEGTMTPPSSRGINTPHTEITNLQLESVKSKACTAVQRREKMSFSQNRLWFPSAYLEQETPFNCTTSYTLTGPLDTARLENAFQRLIQRHESFRTAFYTDEVSGAAMQRVLASSPFQLRTMLGNKDDMQRVFRQIANYHFDLSVADTLVATLISHGPKDHTIVFGYHHIIMDGVSWQITLNDLARFYESDNPELPQLSQYIEFSVKQRQLVSSGAHDAKLSYWRKEFPSAPPLLPLFPFAKVGARKALTRYDTLDYIYDVDVSLVSKIKKASLAAKTTTFHFYLAAFVVLLNRFLEIDDVCLGIIDANRSDKTFLNTVGFLLDMLPLRLKVNKKERFVHTLRNTRAKAYNALEHSGVPLETILKELQVPTSATNTPLFQVLMNYRMGALRAPQMGDAKMNFLDYEDAKAPFDLAISIDEKDDGTGMLTFSMQDYMYDWEGAELLVKTYVHLLDTLATDSSQRINEVSLFDESLVNQSMVAGTGPVTGLDWAGTETISQRVDAMTAQRPDGVAVKDLNGKARTYAETQARVYALASSLQQAGITSGARVAVYCEPTVDTVALVLAIYRVGAAYIPLDVRNSHERLADVVRECKPTLILYHGATKHTLVDVAGDGQDALDIDTVPQSAAPIPDVSKLSDPAVILYTSGSTGKPKGIMLTHANLSLQFASISSALDLTDRDVVLQQSALGFDASLSQMFMALTNGGTLIHGSNRGDPVDLAALIEREGVTLTLIMISEMSALLQYGSDILSRCQSWRIALCGGEAFTVNLLRKFRDLNLPNLELYNAYGPTEASIMSSLGKVAYRRTDWGDGSVVPVGPPLPNYGVYVLDENFQPCPLGWPGELCICGPGVAEGYVGLPELTSSKFQPDQLRKPQGPSYDGWVRVYRTGDKARLLQDGSFVFLGRMDGDSQVKLRGIRIELNDISNSIVKTSKEAIVDAATIVKGTTSQTLVSFVVFAPAKVVDLERSNSSASAYLRQVIQSLPLPVYMRPAIAVPLERLPFTERGKLDTKALAAIPIQEDEETVNEELSETEQKLKQVWQDILSEQGMSLEIRRQSDFFSVGGNSLMLMRVRAKMLEVFGVSVPLAELFQASTLETLASRLDGNKTAESDNIVWNEETALDVSLPPAIAHPRDHPEKDLSVILTGSTGFLGRAIVRQLIADPRISTIHCLAVRPGRTLPEELVGSSKVIVYTGDLAAKRLGLSAPQAQEIFSSAAAIIHNGAEVSHMKSYHSLRPTNVDSTRQLVELALRSSIDSAVRTPAFHYVSTAGVGHLLGIPAFPEQSVSSSPPPVDGSDGYVAAKWASERILEQASERLGLPVFIHRPSNITGPDVGDRDIIHNVWRWSEVLRAVPDLVAAGAKGAFDFVGVETCAKGITDTLFVQASAGHLAYIHQSGENVIPVEEFGECLQRNGGADVELVPFDQWVDKAVQAGLDDLVASFLRGTKGAFQMPFLPKGLRQ
- Km: 310.0 ± 15.5 µM
- kcat: 0.287 ± 0.04 s⁻¹
